Assay [1] addresses T1, human Fcγ receptor RI (CD64) (human, UniProt P12314 16-288).
T1 construct: bought recombinant protein; also called hFcγRI; hFcγR
Put plainly: SPR (ProteOn XPR36), biotinylated Fc construct on NLC chip, hFcγR as analyte, KD,app.

Assay [2] addresses T2, human Fcγ receptor RIIA (CD32a) (human, UniProt P12318 36-218).
T2 construct: bought recombinant protein; also called hFcγR
T2 sequence (looked up): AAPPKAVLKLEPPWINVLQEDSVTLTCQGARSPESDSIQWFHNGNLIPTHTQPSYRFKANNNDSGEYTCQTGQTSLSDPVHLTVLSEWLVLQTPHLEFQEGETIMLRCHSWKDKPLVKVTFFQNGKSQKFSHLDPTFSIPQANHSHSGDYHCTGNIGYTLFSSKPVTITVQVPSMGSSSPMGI
The description is as above.

In assay [3] the target is T3, human Fcγ receptor RIIB/C (CD32b/c) (human, UniProt P31994 46-217).
T3 construct: bought recombinant protein; also called CD32c; hFcγR
T3 sequence (looked up): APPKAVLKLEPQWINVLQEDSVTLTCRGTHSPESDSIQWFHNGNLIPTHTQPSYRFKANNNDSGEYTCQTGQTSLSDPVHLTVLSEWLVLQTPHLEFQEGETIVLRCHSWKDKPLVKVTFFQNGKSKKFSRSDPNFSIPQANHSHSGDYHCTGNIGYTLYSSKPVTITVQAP
The description is as above.

Assay [4] has as its target T4, human Fcγ receptor RIIIA (CD16a) (human, UniProt P08637 17-208).
T4 construct: bought recombinant protein; also called hFcγR
The assay is described as above.

In assay [5] the target is T5, EGFR-ECD (epidermal growth factor receptor extracellular domain produced in HEK293 cells) (UniProt P00533 25-645, limits assumed).
T5 construct: extracellular domain
Put plainly: SPR (Proteon GLC chip), EGFR-ECD injected in the second injection over construct A bound to immobilised CD47.

Assay [6] concerns the target T6, human CD47 (human, UniProt Q08722 19-139).
T6 construct: extracellular domain; also called CD47 ECD
In words: SPR (Biacore T100 and ProteOn XPR36).

Assay [7] addresses T3, human Fcγ receptor RIIB/C (CD32b/c). Put plainly: SPR (ProteOn XPR36), biotinylated Fc construct on NLC chip, hFcγR as analyte.
Assay [8] has as its target T4, human Fcγ receptor RIIIA (CD16a). Described as above.
For assay [9], the target named is T1, human Fcγ receptor RI (CD64). The assay is described as above.
In assay [10] the target is T2, human Fcγ receptor RIIA (CD32a). Described as above.
For assay [11], the target named is T6, human CD47. Put plainly: SPR (Proteon GLC chip), CD47 immobilised by amine coupling, construct injected as analyte in the first injection (100 nM per paragraph 377).
Assay [12] has as its target T5, EGFR-ECD (epidermal growth factor …). Put plainly: SPR (Proteon GLC chip), EGFR-ECD injected in the second injection over construct B bound to immobilised CD47.
Assay [13] deals with T6, human CD47. In words: SPR as in Example 1.
A further assay concerns the target T7, mouse CD47 (mouse, UniProt Q61735 19-140, limits assumed).
T7 construct: also called mouse CD47 protein
T7 sequence (looked up): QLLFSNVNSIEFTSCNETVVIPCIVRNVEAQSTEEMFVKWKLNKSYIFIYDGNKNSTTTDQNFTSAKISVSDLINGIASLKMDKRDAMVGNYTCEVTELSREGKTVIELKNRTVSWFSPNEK
Put plainly: SPR, 25 C, 1:1 Langmuir fit.

Assay [14] concerns the target T6, human CD47. Put plainly: SPR, 25 C, 1:1 Langmuir fit.
The target of assay [15] is T5, EGFR-ECD (epidermal growth factor …). In words: SPR (Proteon GLC chip), EGFR-ECD injected in the second injection over construct C bound to immobilised CD47.

We go through nine molecules from US20200239543A1 (ALX ONCOLOGY, published 2020).

T4 sequence (P08637 17-208 limits assumed): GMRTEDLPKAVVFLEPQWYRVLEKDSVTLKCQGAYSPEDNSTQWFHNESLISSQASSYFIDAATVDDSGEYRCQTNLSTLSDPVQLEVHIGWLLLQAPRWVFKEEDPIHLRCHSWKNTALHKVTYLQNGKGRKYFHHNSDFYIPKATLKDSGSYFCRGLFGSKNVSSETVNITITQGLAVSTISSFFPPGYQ
T6 sequence (Q08722 19-139 limits assumed): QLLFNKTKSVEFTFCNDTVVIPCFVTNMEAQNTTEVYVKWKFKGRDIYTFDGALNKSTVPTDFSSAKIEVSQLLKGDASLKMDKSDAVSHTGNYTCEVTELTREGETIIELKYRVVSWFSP
T1 sequence (P12314 16-288 limits assumed): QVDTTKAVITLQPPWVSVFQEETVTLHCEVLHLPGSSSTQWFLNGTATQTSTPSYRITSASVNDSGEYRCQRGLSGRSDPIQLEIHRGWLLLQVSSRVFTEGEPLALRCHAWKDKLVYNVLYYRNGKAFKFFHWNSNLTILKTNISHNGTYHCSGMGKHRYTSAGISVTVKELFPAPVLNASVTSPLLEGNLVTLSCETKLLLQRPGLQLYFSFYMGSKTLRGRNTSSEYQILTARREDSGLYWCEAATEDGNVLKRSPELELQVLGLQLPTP

As for “Fc variant construct IgG4_S228P (Fc fusion)”, the Kd in assay [1] came out at 1 nM; in assay [2], 810 nM; in [3] it was 850 nM.

For “Fc variant construct IgG4_S228P, L235E (Fc fusion)”, the Kd was 60 nM in assay [1], 1200 nM in [2], 1100 nM in assay [3] and 2400 nM in assay [4].

B1: SIRP-α-Fc fusion, homodimer of SEQ ID NO: 136 (Fc fusion)
chain: EEELQIIQPDKSVLVAAGETATLRCTITSLFPVGPIQWFRGAGPGRELIYNQREGPFPRVTTVSDTTKRNNMDFSIRIGAITPADAGTYYCVKFRKGSPDDVEFKSGAGTELSVRAKPSDKTHTCPPCPAPEAAGAPSVFLFPPKPKDTLMISRTPEVTCVVVDVSHEDPEVKFNWYVDGVEVHNAKTKPREEQYASTYRVVSVLTVLHQDWLNGKEYKCKVSNKALPAPIEKTISKAKGQPREPQVYTLPPSREEMTKNQVSLTCLVKGFYPSDIAVEWESNGQPENNYKTTPPVLDSDGSFFLYSKLTVDKSRWQQGNVFSCSVMHEALHNHYTQKSLSLSPG
In the case of B1, the binding result in [5] is given as “no binding”. The Kd in the assay with human CD47 [6] came out at 0.139 nM.

B2: SIRP-α Fc construct with wildtype IgG2 Fc, SEQ ID NO: 126 (Fc fusion)
chain: EEELQIIQPDKSVLVAAGETATLRCTITSLFPVGPIQWFRGAGPGRVLIYNQRQGPFPRVTTVSDTTKRNNMDFSIRIGNITPADAGTYYCIKFRKGSPDDVEFKSGAGTELSVRAKPSERKCCVECPPCPAPPVAGPSVFLFPPKPKDTLMISRTPEVTCVVVDVSHEDPEVQFNWYVDGVEVHNAKTKPREEQFNSTFRVVSVLTVVHQDWLNGKEYKCKVSNKGLPAPIEKTISKTKGQPREPQVYTLPPSREEMTKNQVSLTCLVKGFYPSDIAVEWESNGQPENNYKTTPPMLDSDGSFFLYSKLTVDKSRWQQGNVFSCSVMHEALHNHYTQKSLSLSPGK
In the case of B2, the Kd in [1] amounted to 700 nM; in [2], 420 nM. The binding result in [7] and in [8] was “no binding (tested: 5000 nM)” each time.

B3: SIRP-α Fc construct with Fc variant IgG2_N297A, SEQ ID NO: 128 (Fc fusion)
chain: EEELQIIQPDKSVLVAAGETATLRCTITSLFPVGPIQWFRGAGPGRVLIYNQRQGPFPRVTTVSDTTKRNNMDFSIRIGNITPADAGTYYCIKFRKGSPDDVEFKSGAGTELSVRAKPSERKCCVECPPCPAPPVAGPSVFLFPPKPKDTLMISRTPEVTCVVVDVSHEDPEVQFNWYVDGVEVHNAKTKPREEQFASTFRVVSVLTVVHQDWLNGKEYKCKVSNKGLPAPIEKTISKTKGQPREPQVYTLPPSREEMTKNQVSLTCLVKGFYPSDIAVEWESNGQPENNYKTTPPMLDSDGSFFLYSKLTVDKSRWQQGNVFSCSVMHEALHNHYTQKSLSLSPGK
For B3, the binding result in [9], in assay [7], in assay [10] and in [8] was “no binding (tested: 5000 nM)” each time.

B4: single-arm SIRP-α-Fc fusion, heterodimer of SEQ ID NO: 139 (an Fc variant) and SEQ ID NO: 142 (a SIRP-α-Fc fusion) (Fc fusion)
chain 1: EEELQIIQPDKSVLVAAGETATLRCTITSLFPVGPIQWFRGAGPGRELIYNQREGPFPRVTTVSDTTKRNNMDFSIRIGAITPADAGTYYCVKFRKGSPDDVEFKSGAGTELSVRAKPSDKTHTCPPCPAPEAAGAPSVFLFPPKPKDTLMISRTPEVTCVVVDVSHEDPEVKFNWYVDGVEVHNAKTKPREEQYASTYRVVSVLTVLHQDWLNGKEYKCKVSNKALPAPIEKTISKAKGQPREPQVYTLPPSREEMTKNQVSLWCLVKGFYPSDIAVEWESNGQPENNYKTTPPVLDSDGSFFLYSKLTVDKSRWQQGNVFSCSVMHEALHNHYTQKSLSLSPGK
chain 2: DKTHTCPPCPAPEAAGAPSVFLFPPKPKDTLMISRTPEVTCVVVDVSHEDPEVKFNWYVDGVEVHNAKTKPREEQYASTYRVVSVLTVLHQDWLNGKEYKCKVSNKALPAPIEKTISKAKGQPREPQVYTLPPSREEMTKNQVSLSCAVKGFYPSDIAVEWESNGQPENNYKTTPPVLDSDGSFFLVSKLTVDKSRWQQGNVFSCSVMHEALHNHYTQKSLSLSPGK
notes: knob and hole heterodimer
With B4, the binding result with human CD47 [11] is reported as “binds”; in [12], “no binding”.

B5: SIRP-α D1 variant fused to Fc variant IgG1 L234A, L235A, G237A, N297A, SEQ ID NO: 96 (Fc fusion)
chain: EEELQIIQPDKSVLVAAGETATLRCTITSLFPVGPIQWFRGAGPGRVLIYNQRQGPFPRVTTVSDTTKRNNMDFSIRIGNITPADAGTYYCIKFRKGSPDDVEFKSGAGTELSVRAKPSDKTHTCPPCPAPEAAGAPSVFLFPPKPKDTLMISRTPEVTCVVVDVSHEDPEVKFNWYVDGVEVHNAKTKPREEQYASTYRVVSVLTVLHQDWLNGKEYKCKVSNKALPAPIEKTISKAKGQPREPQVYTLPPSREEMTKNQVSLTCLVKGFYPSDIAVEWESNGQPENNYKTTPPVLDSDGSFFLYSKLTVDKSRWQQGNVFSCSVMHEALHNHYTQKSLSLSPGK
Consider B5, for which the figures for the Kd with human CD47 [13], with mouse CD47 and with human CD47 [14] were 0.0351 nM, 33.2 nM and 0.0104 nM, respectively. Further, the binding result in assay [9], in [7], in [10] and in [8] was “no binding (tested: 5000 nM)” in each case.

B6: SIRP-α Fc construct with Fc variant IgG1_AAA (L234A, L235A, G237A), SEQ ID NO: 124 (Fc fusion)
chain: EEELQIIQPDKSVLVAAGETATLRCTITSLFPVGPIQWFRGAGPGRVLIYNQRQGPFPRVTTVSDTTKRNNMDFSIRIGNITPADAGTYYCIKFRKGSPDDVEFKSGAGTELSVRAKPSDKTHTCPPCPAPEAAGAPSVFLFPPKPKDTLMISRTPEVTCVVVDVSHEDPEVKFNWYVDGVEVHNAKTKPREEQYNSTYRVVSVLTVLHQDWLNGKEYKCKVSNKALPAPIEKTISKAKGQPREPQVYTLPPSREEMTKNQVSLTCLVKGFYPSDIAVEWESNGQPENNYKTTPPVLDSDGSFFLYSKLTVDKSRWQQGNVFSCSVMHEALHNHYTQKSLSLSPGK
Regarding B6, the Kd amounted to 8000 nM in assay [1] and 2300 nM in [2]. Moreover, the binding result in [7] and in assay [8] was “no binding (tested: 5000 nM)” each time.

B7: single-arm SIRP-α-Fc fusion, heterodimer of SEQ ID NO: 139 (an Fc variant) and SEQ ID NO: 138 (a SIRP-α Fc fusion) (Fc fusion)
chain 1: EEELQIIQPDKSVLVAAGETATLRCTITSLFPVGPIQWFRGAGPGRVLIYNQRQGPFPRVTTVSDTTKRNNMDFSIRIGAITPADAGTYYCIKFRKGSPDDVEFKSGAGTELSVRAKPSDKTHTCPPCPAPEAAGAPSVFLFPPKPKDTLMISRTPEVTCVVVDVSHEDPEVKFNWYVDGVEVHNAKTKPREEQYASTYRVVSVLTVLHQDWLNGKEYKCKVSNKALPAPIEKTISKAKGQPREPQVYTLPPSREEMTKNQVSLWCLVKGFYPSDIAVEWESNGQPENNYKTTPPVLDSDGSFFLYSKLTVDKSRWQQGNVFSCSVMHEALHNHYTQKSLSLSPGK
chain 2: DKTHTCPPCPAPEAAGAPSVFLFPPKPKDTLMISRTPEVTCVVVDVSHEDPEVKFNWYVDGVEVHNAKTKPREEQYASTYRVVSVLTVLHQDWLNGKEYKCKVSNKALPAPIEKTISKAKGQPREPQVYTLPPSREEMTKNQVSLSCAVKGFYPSDIAVEWESNGQPENNYKTTPPVLDSDGSFFLVSKLTVDKSRWQQGNVFSCSVMHEALHNHYTQKSLSLSPGK
notes: knob and hole heterodimer
Consider B7, for which the binding result in assay [15] is reported as “no binding”; in the assay with human CD47 [11], “binds”.
